Where a chain is given by its changes, count along the chain named. Where two headings read alike, the source gives them in different places.
Key:
[1] = system: restraint-induced ACTH and corticosterone; test: Wildtype mice restraint-stress model (ACTH and corticosterone); assay type: in vivo, mouse; settings: mAb 5 mg/kg
[2] = target: T1, human UCN1 (Homo sapiens, UniProt P55089); test: Human UCN1 ELISA binding; settings: in words
T1 sequence (P55089 83-122 limits assumed): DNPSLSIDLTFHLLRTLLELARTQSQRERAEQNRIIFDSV
Protocol: Streptavidin (Thermo, Cat: 21125) was diluted in PBS to a concentration of 2 μg/ml. 100 μl of diluted streptavidin was added per well to ELISA microplates, and the plates were incubated overnight at 4° C. Plates were blocked with ELISA blocking solution (containing 2% w/v BSA, 0.05% (v/v) Tween-20, pH 7.4 PBS buffer) at 37° C. for 1 hour, and then incubated with 0.5 μg/mL CRH (NT biotin), 0.5 μg/mL CRH (CT biotin), 1 μg/mL human UCN1 (NT biotin), or 1 μg/mL human UCN1 (CT biotin) for 1 hour at 37° C. Plates were then washed and incubated with diluted anti-CRH antibody (Ab) at 15 μg/ml (100 nM, 10 diluted, 8 points) for 1 hour at 37° C. Subsequently, plates were washed and incubated with HRP-conjugated goat anti-human IgG (H+L) antibody (Jackson, Cat: 109-035-088) at 37° C. for 1 hour. […] 100 μL of ELISA stopping solution (Solarbio, Cat #: C1058) was added to terminate the reaction, and the optical density at 450 nm (OD450 nm) was determined by an ELISA plate reader (Molecular Devices, Spectra max 384 plus).
Streptavidin (Thermo, Cat: 21125) was diluted in PBS with a concentration of 2 μg/mL. […] 100 μL of ELISA stopping solution (Solarbio, Cat #: C1058) was then added to terminate the reaction, and the OD450 nm was determined by an ELISA plate reader (Molecular Devices, Spectra max 384 plus).

[3] = target: T2, N-terminal region plus central region, central region only, central region plus C-terminal region of CRH (Homo sapiens, UniProt P06850); test: ELISA determining the binding region of CRH; settings: dash = no binding
T2 construct: N-terminal region plus the central region (CT biotin), the central region only (NT biotin or CT biotin)
Protocol: Streptavidin (Thermo, Cat: 21125) was diluted in PBS to a concentration of 2 μg/ml. 100 μl of diluted streptavidin was added per well to ELISA microplates, and the plates were incubated overnight at 4° C. Plates were blocked with ELISA blocking solution (containing 2% w/v BSA, 0.05% (v/v) Tween-20, pH 7.4 PBS buffer) at 37° C. for 1 hour, and then incubated with 1 μg/mL N-terminal region plus the central region (CT biotin), the central region only (NT biotin or CT biotin), or the central region plus C-terminal region (NT biotin) of CRH for 1 hour at 37° C. Plates were then washed and incubated with diluted anti-CRH antibody (Ab) at 15 μg/ml (100 nM, 10 diluted, 8 points) for 1 hour at 37° C. Subsequently, plates were washed and incubated with HRP-conjugated goat anti-human IgG (H+L) antibody (Jackson, Cat: 109-035-088) at 37° C. for 1 hour. 100 μL of 3,3′,5,5′-tetramethylbenzidine (TMB) substrate (Biopanda, Cat: TMB-S-003) was added, and the plates were incubated at room temperature for 15 minutes. 100 μL of ELISA stopping solution (Solarbio, Cat #: C1058) was added to terminate the reaction, and the optical density at 450 nm (OD450 nm) was determined by an ELISA plate reader (Molecular Devices, Spectra max 384 plus).

B1: PR302334-24: humanized variant of Series 9 mAb PR302334; VH SEQ ID NO: 275, VL SEQ ID NO: 328 (antibody, V domains shown)
VH: EVQLVESGGGLVKPGGSLRLSCAASGFTFSTYAMSWVRQAPGKGLEWVASIRSGGTTYYPDSVKGRFTISRDNAKNSLYLQMNSLRAEDTAVYYCTRGIDWGQGTTVTVSS
VL: DIVMTQSPDSLAVSLGERATINCKASQSVNNDVAWYQQKPGQPPRLLIYYASNRYTGVPDRFSGSGSGTDFTLTISSLQAEDLAVYFCQQDYSSWTFGGGTKVEIK
modifications: PR302334-16 VH, PR302334-24 VH, PR302334-25 VH; PR302334-10 VL, PR302334-24 VL, PR302334-26 VL, PR302334-4 VL
[1]
  efficacy in reducing plasma ACTH and corticosterone levels versus SSR125543A at 30 mg/kg: more efficacious

B2: PR302334-26: humanized variant of Series 9 mAb PR302334; VH SEQ ID NO: 277, VL SEQ ID NO: 328 (antibody, V domains shown)
VH: B1 VH with K13Q, A74S
VL: B1 VL
modifications: PR302334-18 VH, PR302334-26 VH, PR302334-27 VH; PR302334-10 VL, PR302334-24 VL, PR302334-26 VL, PR302334-4 VL
[2]
  binding to human UCN1 peptides in ELISA: except for PR302334-26, bound to human UCN1
[3]; central plus C-terminal region CRH peptide, NT-biotin (SEQ ID NO: 483), read-out: ELISA EC50 C-Ter-CRH (NT-Bion)
  EC50: > 100 nM
[3]; central region CRH peptide, CT-biotin (SEQ ID NO: 485), read-out: ELISA EC50 Central-CRH (CT-Bion)
  EC50: > 100 nM
[3]; central region CRH peptide, NT-biotin (SEQ ID NO: 484), read-out: ELISA EC50 Central-CRH (NT-Bion)
  EC50: > 100 nM
